Earlier results as cited in article PMC2749146.

Test system: Cys
Assay: UV-vis
Conditions: Reduced; the protein unfolds below pH 3, so deprotonation and unfolding overlap.

For DsbA (EcDsbA) (Escherichia coli), the pKa is listed as “∼3.5”.
